The data set in a line: label from the status in PepcDB records.
“MQCNICEVRCEINKHSTGRCGTYVSTGNTITQYPGMGYMGAYPISIEEVPLHHFYPSGKFLQIFSKGCNFQCPGCAARMPASSEPSTQQASLSPSEVVKRALKQECLGVVSTLNDPVANYYLFRDLAIQAQEKSLLVGCSTNCYFTSETLEEFGQLVDFVNVGIKGYSDRGYRNCGVTSSAPVFRNISRLFDMGVHVETSIAYSRGNEEDVIKVAEAVSDISPTIPLHVMRFLPFGYAPIELEPSIGEAEKICSDLRRYLDFVYLFNSPGTELLNTYCPECGRLLIEREFHRPFGSRLVKPWLSHKCSCGCSIPVQGKAPTEGFSEAGLMDSYSISQAFSMVHAVLTCLGVLDDYKLMDIWGEDKLMDVWSKVSNPKTLMQIHNMIRQPYSYLEFIKFIAEKANMPEKGEELVSFIHKRLQIVQNLSAGKSSYYVYYCMGSPFFALNAGRMENNLVTFSGGVSINKQLQKEGKLGVSVSPSFINEHNPGVIFVSGFLSRPLDEFYALCQKYGIHADAVTQHRVYEIPPSWDFGSPRWILGLMYITDKLHPGKLEVDLKKEADDFYLQFYGMRFKEARPNRSFHRPSSGIWPHTQTLYNYFEMEVPNQDSTKNFGNEITQPFNILPTCKIKLKE”: the protein production result is recorded as “failed”.

With “MADIPKSPTEPNKPVDTKLQVDPNTPVDPKPPVVEPKPPVVDPKPPVVDPKPPEPTHPTITVSPKTGDILVEWYAGNGKYYSSVFFNDFYTSQKELDENALNNLTNYYSKKEDWTLVSQLNTPSKSKSVAEHKLALDNVEQILTSGEYSNERALFYLRNQMNVLNESVTTQEELQRYLSENKKDYIKSVAEKVYQTATEEKREWSNTGDVASLEQALSKFYLVTSVFESVDPALV”, the protein production result is on record as “failed”. As for “MQGLVNMVYQQTERLGYKNLEMIKGLDRTENYSKLKKYYRSCVKEYELSNKAIEEAKGFASSKAYRSASEAAARAFDSISMCEAYLEGSKTPGYVTTRNWWFERMCDIDKIFTDLLISAKF”, the entry is “failed”. The same measure for “MAAITTGVVLLRWQLLSAVLMFLASTLNIRFRKSDYIGLAVISSGLGVVSACWFATGLLGITMMDLAAIWHNIEAVMVETMSQTPPEWPMVLT”: “failed”; for “MQGGSSGIGYGLKYQSRCISDVKADTDYTSFLTGTLSLKEENEVHLLRLSSGGSELICEGLFSHPNEIWDLASCPFDQRIFSTVFSTGESFGAAIWQIPELYGQLNSPQLERVASLDAHVGKINCVLWWPSGRCDKLISIDEQNIFLWSLDCSKKSAEVLSKDSAGMLHSLSGGAWDPHDVNAVAATGESSVQFWDLRTMKKVNSIEHAHVRGVDYNPKREHILVTAEDESGIHVWDLRKAKVPVQELPGHTHWTWAVRCNPEYDGLILSAGTDSVVNLWYASATSSDDKTSESPVESTRQRVNPLLNSYTDYEDSVYGLAWSSREPWVFASLSYDGRVIIESVKPFLPRI”: “failed”. The same measure for “ANIYTFDFDEIESQEDFYRDFSQTFGLAKDKVRDLDSLWDVLMNDVLPLPLEIEFVHLGEKTRRRFGALILLFDEAEEELEGHLRFNVRH”: “not failed”; for “LSPQVRTAHIGDVPVLVRLMSEFYQEAGFALPHDAAIRAFKALLGKPDLGRIWLIAEGTESVGYIVLTLGFSMEYGGLRGFVDDFFVRPNARGKGLGAAALQTVKQGCCDLGVRALLVETGPEDHPARGVYSRAGFEESGRMLLGQALAPPIHEA”: “not failed”; for “MLVTGVARQLGGRFVRRIQRDPNVDRVIAVDAVRPEHHLGGADFIQADIRQPTIARVLAEHSVDTVVHMDVTGTALGTGSRATVKETNVIGTMQLLGACQKSPTVKRLVVKSSTNVYGSAPRDPAVFTETTPPKSLPSGGFAKDTVEVEGYVRGFARRRPDVAVCVLRFANILGPSADSPLASYFSLPVLPTVFGYDPRLQFAHEDDVIDVLRIASYEPRRGTLNSGTFNVAGDGVLLLSQCARRLGRPTVPLLLPAVTWVGSAVRTLGMTDFSPEQIRLLTHGRVVATNQMRETLGYVPKYTTAETFADFARSRGPGLLPPEALAGAVDRIAALPALGGGHPPTQSAN”: “failed”.

For the sequence “MTTIALLGNPNVGKTTLFNALTGSNQHVGNWPGVTVDKKEGFFNSNKIVDLPGIYALDTFSNEEKVSKKFLESGDVDLILNIVDASNLDRNLYLTMQLKDFKKPIVLLLNMNDIAEKKGIKIDPKKLEKAFNLKVIPITASKKEGLDEVKEFLNKGNFEKYLDKNTYSFKDEAHTYKFIEDKLSDCFNRSGNSSTTLTDKLDKVFLNPWLAYPLFIALMYFVFQFTFSWVGQPISDALDGFLGDTFMPYLSDLLSGTAPWFQSLLVDGIVAGVGGIIVLLPIILALFLCIAILEDSGYMARVAFLMDKFMRKIGLSGKAFLPMITGFGCTVPAIMSARTLESEKDRKLTALLAPFMSCNARLPVYVIFAGLFFPDNASMVVASLYILGILVAFILGLVFKNTLFKKDEEPFIIELPEYKVPEVRSVLAQLWDKSKSFLKKAGTIIFAMSVVIWFLQSFNFTGMVEDITHSFLYNIGSFIAPIFAPLGFGDWQASVSLLTGLMAKETIISTMEVIYKGDLTHMLPQFFTALSSYSFMVFVLLYTPCISVVGVMKKEYGGKFTVLSVIFQFLVAWISAFIIYHIGLLIF”, the protein production entry is on record as “failed”. As for “SWNQAPKLHYCLDYDCQKAELFVTRLEAVTSNHDGGCDCYVQGSVANRTGSVEAQTALKKRQLHTTWEEGLVLPLAEEELPTATLTLTLRTCDRFSRHSVAGELRLGLDGTSVPLGAAQWGELKT”, the entry is “not failed”; as for “NQEPSGAVRITLSRFAYLLILKPAMAAFCQQYPGIQLEISVYDGTVNIIEERFDLGIRFGDILEGGVVARPLMKPFREGLYASSAYLAEYGVPAMPADLHHHRLIGYRFITNNRILPLILNDHGEQLTVEMPGQLISNDIDVM”, “failed”. On to “MFVSHGAIVKSAPKHWNGSKCPIRMQVRVPDPDRRSLLRAGAHIILGGLLATVIPGTSPSIAKIREKPTDKGEEAPKIDDEKELDKYVSGLKYEEELYENPDPAEKEVYRTPRVEREPEYKKKEDEILEKESKVLKEEAREAARESEVLRQEFEKR”, for which the protein production result was “not failed”. With “METKGEPYSEPCEFFNSILTGSVSRKMRLPRMGIRNFIGTSRLHFAKRAFHAQAAVDEDSRYGALLSIKEYPPFTGPGMLDGLLQVNHEFILTQSFTLADKPIAQERITRLQRQIRASDEAGTSVESDINFALDSMLNQEAVFGFHHFSLLCISRDLEGLSRCVSELGACLTDMNINWLREDLNLEAAFWAQLPGNHSYIARKAMLSSSNFSGLSSMHNFASGQAERTHWGLPITILETTSQTPYWFNFHRRDIGHFTVTGPTGSGKTVGLSFLLAQAMRVSPTPRAVFFDKDRGAEIFVRAIGGSYEILSPGTPTGFNPLQLENTGPNREFLQRLLKAMLGGRDRRDFTQEDEDIIERAVVRLMEEPAQQRNLTNLGNLLMGRARADANDLYSRLRPWTEGEKAWLFNAPHDVLSFSGRTVFGFDMTSILGNEELRTPALMYLYHRLDELLDGNPVMFFMDEGWQLLLDETFSAFIVDKMKTIRKLNGIVGFGTQSAADIAKSKVSHTLIEQSSTNIHFPNPRADEESYIKRFGLTVKEYNFIKNTPPEKRTFLIKHGNDSVIARLDLSSMPDLVKVLSGRKETIEECAALREQYGDEPENWLAKFCGWENAELEHHHHHH”, the protein production entry is listed as “not failed”. In the case of “MSAKRVFEKFDKNKDGKLSLDEFREVALAFSPYFTQEDIVKFFEEIDVDGNGELNADEFTSCIEKML”, the protein production entry is recorded as “not failed”. As to “MKVIETKYNGKLEVAEDRLIAFDQGIPAFEDEKEFVLLPFAAGTPYYTLQSTKTVDLAFIIVNPFSFFPEYRVKLPEATIVQLNITNENDVAIFSLLTVKEPFSETTVNLQAPIVINANKQMGKQLVLGDTAYDRKQPLFQKELVLAKEAK”, the protein production result was “not failed”. The same measure for “MNPLHLAAAFASGCLLTLMVHFNGQLAHYGNALFSSWTAHGTGTVAALIYLAIMRPKKDAAAPAKPNAPLWAYCGGVVGAAIVILTSTAVNSPLALSGTIALGLGGQVIFSLLADLFGLFGLPKRRPDVQDMVAVCLILCGSALIILVGRAA”: “failed”; for “MKVEEILEKALELVIPDEEEVRKGREAEEELRRRLDELGVEYVFVGSYARNTWLKGSLEIDVFLLFPEEFSKEELRERGLEIGKAVLDSYEIRYAEHPYVHGVVKGVEVDVVPCYKLKEPKNIKSAVDRTPFHHKWLEGRIKGKENEVRLLKGFLKANGIYGAEYKVRGFSGYLCELLIVFYGSFLETVKNARRWTRRTVIDVAKGEVRKGEEFFVVDPVDEKRNVAANLSLDNLARFVHLCREFMEAPSLGFFKPKHPLEIEPERLRKIVEERGTAVFAVKFRKPDIVDDNLYPQLERASRKIFEFLERENFMPLRSAFKASEEFCYLLFECQIKEISRVFRRMGPQFEDERNVKKFLSRNRAFRPFIENGRWWAFEMRKFTTPEEGVRSYASTHWHTLGKNVGESIREYFEIISGEKLFKEPVTAELCEMMGVKD”: “not failed”. The same measure for “MRIAVVGATGRIGSKLTRTLLGAGHQVKALSRGGAALEALVEAGAEPFLGSFDTGAGALDTFFQDVEAAFLMVKTDWNNIEGHYPAVAQRFVDALRGSPVKLAVSLSAMGSDVDGKTGHFELFHHLDQRLNELNDIDMVHLRAAWFMENTLAWTASVAKYGRLAWFYEPDLKMPWVATDDIAGLAAKELTNPTGDHRVIRETGSEDLTMNELAAMIGREIGKPVEYRFIDRGRKEIENEYLARFGTPEHWLDDSRSADALNHGVVRFQGGDDVRPVLPTTMEAFLKTIWTPRYLEALASEGKPETFEMWCAR”: “failed”. As for “MTEARAGLFARRRYLPALAVLYAALWLALAIEPHDRSDWLLENALVLGFGVALYATRRWFVFSRVSYTLIFLYLCLHAVGAHYTYSLVPYDAWWQRLTGHSLDQLLGWERNQFDRLVHFSYGLLLAYPIREIFLRVVDVRGFWGYLLPLDVALSTSALYELIEWGAAEFFGGELGVAYLGTQGDIWDAQKDMALAGLGALIAMLLTALFNRGARRDPARDWVDRMKPGHT”, the protein production result is listed as “failed”. As to “MTAPIIITGVGKRIGYALAKHLLAQGHKVIGTYRSHYPSIDELQSLGATLIQCDFYDNAQVQNLIEQLSQYPKFRAIIHNASDWLADNSPEFAAHEVMQRMIQVHVNVPYQMNLALASKLQAGAEGEIGASDIIHITDYVAEKGSAKHIAYAASKAALDNLTLSFAAKLAPEVKVNAIAPAMILFNPSDDEAYRQKTLAKAILPKEAGNHEIIELMEYLLNSRYVTGRSHHVDGGRHLR”, the protein production entry was “not failed”. As for “MLPTKINLIRLRRELAMLRRIRRVMEEKREVILHYITSMAAEYVRYQREVYSELERIYQNYYLGVAAEGIERARAFTAPAEGSLEVDVSTRTLFAVKTPVFSLREETVPPLPLPAGSDPKLVQSILDMRSILDKLLKLAEYEETLQRLISELKDTQRLINALDYVILPSYQNAIKFIKLVLEDRMREDFVRLKIIKRKMEAKTQLEHHHHHH”, the entry is “not failed”; as for “MKTDIILAGVGGQGILSIAAAIGSAALTNNLYLKQAETHGMSQRGGDVQSFLRLSDAPIYSDLIPIGGADLILSVEPMEALRYLPYLKPDGYVVTNTVPFINIPNYPETTSVISKIESLPHHVLIDADSIARDEVGNVRASNFVMLGAASPFIEIPFDYLAGGIEAIFSRKGQEVVDMNLKALNAGREFALRYAAGK”, “not failed”; as for “MRKVTAAVMASTLAFSFLSHAAEVVTSDNWHPGDGATQRSAQNHMFDGISLTEHQRQQMRDLMQQARHEQPPVNVSEMETMHRLVTAEKFDESAVRAQAEKMAQEQVARQVEMARVRNQMYRLLTPEQQAVLNEKHQQRMEQLRDVAQWQKSSSLKLLSSSNSRSQLEHHHHHH”, “failed”.

With “MSLGNIFVTGRIAFSLKYEQQTQSLVVHVKECHQLAYADEAKKRSNPYVKTYLLPDKSRQGKRKTSIKRDTVNPLYDETLRYEIPESLLAQRTLQFSVWHHGRFGRNTFLGEAEIQMDSWKLDKKLDHCLPLHGKISAESEGHHHHHH”, the protein production entry is given as “not failed”.

The record behind these values is a protein production outcome set (Wang et al. 2014).
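Further: failed if final PepcDB status was selected cloned or expressed and not failed if soluble or beyond.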
